# In publication PMC3752698:
# B1: soluble SCARF1 protein (receptor)
# chain: SELDPKGQHVCVASSPSAELQCCAGWRQKDQECTIPICEGPDACQKDEVCVKPGLCRCKPGFFGAHCSSRCPGQYWGPDCRESCPCHPHGQCEPATGACQCQADRWGARCEFPCACGPHGRCDPATGVCHCEPGWWSSTCRRPCQCNTAAARCEQATGACVCKPGWWGRRCSFRCNCHGSPCEQDSGRCACRPGWWGPECQQQCECVRGRCSAASGECTCPPGFRGARCELPCPAGSHGVQCAHSCGRCKHNEPCSPDTGSCESCEPGWNGTQCQQPCLPGTFGESCEQQCPHCRHGEACEPDTGHCQRCDPGWLGPRCEDPCPTGTFGEDCGSTCPTCVQGSCDTVTGDCVCSAGYWGPSCNASCPAGFHGNNCSVPCECPEGLCHPVSGSCQPGSGSRDT
# Molecular target: complement component C1q
# Experiment: SPR
binder,measurement,value
B1,Kd,124 nM
